Target: CD80-FC (UniProt P33681)
Assay: ELISA, CD80-FC coated 4 µg/ml, biotin-PDL1-FC titrated

Sequence of CD80-FC (P33681 35-242 limits assumed): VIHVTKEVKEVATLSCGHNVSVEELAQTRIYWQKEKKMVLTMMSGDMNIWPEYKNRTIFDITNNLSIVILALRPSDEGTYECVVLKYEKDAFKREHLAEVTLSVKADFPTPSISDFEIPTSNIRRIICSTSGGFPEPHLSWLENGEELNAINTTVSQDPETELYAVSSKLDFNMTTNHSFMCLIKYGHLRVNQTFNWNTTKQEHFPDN
Sequence of Biotin QP004.3 (biotin-PDL1-FC) (Q9NZQ7 19-238 limits assumed): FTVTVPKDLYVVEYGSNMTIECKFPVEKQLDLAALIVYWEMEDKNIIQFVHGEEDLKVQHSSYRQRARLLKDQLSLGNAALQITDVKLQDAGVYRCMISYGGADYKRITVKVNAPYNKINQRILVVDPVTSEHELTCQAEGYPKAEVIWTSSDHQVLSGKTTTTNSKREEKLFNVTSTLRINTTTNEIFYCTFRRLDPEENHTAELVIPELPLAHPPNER

Biotin QP004.3 (biotin-PDL1-FC) (from UniProt Q9NZQ7 19-238) (Fc fusion)
ELISA reading at 0 µg/ml Biotin-QP004.3 (blank): 0.0484 | ELISA reading at 0.00064 µg/ml Biotin-QP004.3: 0.048 | ELISA reading at 0.0032 µg/ml Biotin-QP004.3: 0.0468 | ELISA reading at 0.016 µg/ml Biotin-QP004.3: 0.0668 | ELISA reading at 0.08 µg/ml Biotin-QP004.3: 0.179 | ELISA reading at 0.4 µg/ml Biotin-QP004.3: 0.591 | ELISA reading at 2 µg/ml Biotin-QP004.3: 1.87 | ELISA reading at 10 µg/ml Biotin-QP004.3: 3.19

From patent US20230183352A1
